# In the supplement of paper PMC9112550, “Optimization of the antimicrobial peptide Bac7 by deep mutational scanning” (BMC Biology, 2022):
# Test system: Escherichia coli TOP10
# Test: shrunken log2 fold change of peptide-encoding DNA abundance (4.5 h post-induction vs induction); higher = less antimicrobial activity (less host growth inhibition)
# Conditions: time post-induction: 4.5 h; library: site-saturation at positions 5, 18, 19, 20
# 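Note: peptides expressed intracellularly from a pBAD plasmid library in pooled LB shake-flask culture, induced with 0.3% L-arabinose, DNA abundance read by NGS, three biological replicates, DESeq2 with apeglm shrinkage.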
row,Sequence,shrunken log2 fold change
1,RRIRFRPPRLPRPRPRPPNNPRP,-0.445
2,RRIRFRPPRLPRPRPRPPNWPRP,0.211
3,RRIRFRPPRLPRPRPRPPPKPRP,1.58
4,RRIRFRPPRLPRPRPRPPQFPRP,0.0547
5,RRIRFRPPRLPRPRPRPPSMPRP,0.252
6,RRIRFRPPRLPRPRPRPPSNPRP,0.324
7,RRIRFRPPRLPRPRPRPPVGPRP,0.641
8,RRIRFRPPRLPRPRPRPPVVPRP,0.159
9,RRIRFRPPRLPRPRPRPPWRPRP,1.68
10,RRIRFRPPRLPRPRPRPPYRPRP,0.0239
11,RRIRFRPPRLPRPRPRPPYTPRP,-0.419
12,RRIRFRPPRLPRPRPRPQAGPRP,-0.0266
13,RRIRFRPPRLPRPRPRPQCNPRP,-0.531
14,RRIRFRPPRLPRPRPRPQCRPRP,-0.218
15,RRIRFRPPRLPRPRPRPQDGPRP,0.0293
16,RRIRFRPPRLPRPRPRPQEEPRP,-0.0228
17,RRIRFRPPRLPRPRPRPQEKPRP,-0.0525
18,RRIRFRPPRLPRPRPRPQEMPRP,0.126
19,RRIRFRPPRLPRPRPRPQEYPRP,-0.541
20,RRIRFRPPRLPRPRPRPQFIPRP,-0.141
21,RRIRFRPPRLPRPRPRPQGGPRP,0.0852
22,RRIRFRPPRLPRPRPRPQISPRP,-0.217
23,RRIRFRPPRLPRPRPRPQPAPRP,0.652
24,RRIRFRPPRLPRPRPRPQPTPRP,0.597
25,RRIRFRPPRLPRPRPRPQQIPRP,-0.54

row,Sequence,shrunken log2 fold change
1,RRIRFRPPRLPRPRPRPQRPPRP,0.203
2,RRIRFRPPRLPRPRPRPQRQPRP,-0.064
3,RRIRFRPPRLPRPRPRPQRSPRP,-0.105
4,RRIRFRPPRLPRPRPRPQRYPRP,-0.139
5,RRIRFRPPRLPRPRPRPQSGPRP,-0.036
6,RRIRFRPPRLPRPRPRPQSPPRP,-0.13
7,RRIRFRPPRLPRPRPRPQSQPRP,0.0846
8,RRIRFRPPRLPRPRPRPQTVPRP,-0.211
9,RRIRFRPPRLPRPRPRPQVYPRP,-0.167
10,RRIRFRPPRLPRPRPRPQWLPRP,-0.0613
11,RRIRFRPPRLPRPRPRPQYMPRP,-1.77
12,RRIRFRPPRLPRPRPRPRATPRP,0.691
13,RRIRFRPPRLPRPRPRPRCIPRP,-0.606
14,RRIRFRPPRLPRPRPRPRCKPRP,0.0452
15,RRIRFRPPRLPRPRPRPRDWPRP,0.308
16,RRIRFRPPRLPRPRPRPRGAPRP,0.493
17,RRIRFRPPRLPRPRPRPRGLPRP,-0.0929
18,RRIRFRPPRLPRPRPRPRHIPRP,-0.439
19,RRIRFRPPRLPRPRPRPRHKPRP,0.202
20,RRIRFRPPRLPRPRPRPRIWPRP,0.051
21,RRIRFRPPRLPRPRPRPRKNPRP,0.266
22,RRIRFRPPRLPRPRPRPRMNPRP,-0.173
23,RRIRFRPPRLPRPRPRPRNCPRP,-0.132
24,RRIRFRPPRLPRPRPRPRPGPRP,0.837
25,RRIRFRPPRLPRPRPRPRRIPRP,-0.116

row,Sequence,shrunken log2 fold change
1,RRIRFRPPRLPRPRPRPRRQPRP,0.108
2,RRIRFRPPRLPRPRPRPRRVPRP,0.258
3,RRIRFRPPRLPRPRPRPRSSPRP,0.12
4,RRIRFRPPRLPRPRPRPRSTPRP,0.421
5,RRIRFRPPRLPRPRPRPRTMPRP,0.0577
6,RRIRFRPPRLPRPRPRPRVMPRP,0.138
7,RRIRFRPPRLPRPRPRPRWFPRP,-0.111
8,RRIRFRPPRLPRPRPRPRWPPRP,0.327
9,RRIRFRPPRLPRPRPRPRYMPRP,-0.689
10,RRIRFRPPRLPRPRPRPSAKPRP,0.319
11,RRIRFRPPRLPRPRPRPSASPRP,0.0552
12,RRIRFRPPRLPRPRPRPSFWPRP,-0.0521
13,RRIRFRPPRLPRPRPRPSGGPRP,-0.103
14,RRIRFRPPRLPRPRPRPSGLPRP,-0.237
15,RRIRFRPPRLPRPRPRPSHTPRP,-0.035
16,RRIRFRPPRLPRPRPRPSKKPRP,0.0524
17,RRIRFRPPRLPRPRPRPSNDPRP,-0.112
18,RRIRFRPPRLPRPRPRPSNMPRP,-0.935
19,RRIRFRPPRLPRPRPRPSPWPRP,1.82
20,RRIRFRPPRLPRPRPRPSREPRP,1.17
21,RRIRFRPPRLPRPRPRPSRGPRP,0.485
22,RRIRFRPPRLPRPRPRPSTFPRP,-0.945
23,RRIRFRPPRLPRPRPRPSTYPRP,-0.802
24,RRIRFRPPRLPRPRPRPSVYPRP,-0.158
25,RRIRFRPPRLPRPRPRPSWCPRP,-0.0879
